Experimental data as given in PMC9828152.

Biological target: Sp1 (specific protein 1) (UniProt P08047)
Test: anti-Flag co-IP, Sp1 blot
Conditions: reference: Ets1 WT-Flag; sites Y283

“Ets1 (human E26 transcription factor 1) (from UniProt P14921) Ets1 Y283F-Flag” was tested, and the “binding against the reference” value was “weaker”.
